According to article PMC9727157, “The transmembrane domains mediate oligomerization of the human ZIP4 transporter in vivo” (Scientific Reports, 2022):

Target: the molecule itself
Assay: fluorescence correlation spectroscopy (FCS) with molecular brightness analysis; living transfected HEK293 cells, upper plasma membrane centred in the confocal volume; 23 °C, HEPES-buffered MEM without phenol red; 100 s (10 x 10 s); brightness compared with CD-86/eGFP (monomer) and CD-86/eGFP/eGFP (tandem, dimer) controls

B1: truncated human ZIP4 (without ECD) tagged with eGFP (truncated hZIP4/eGFP) (domain or fragment, UniProt Q6P5W5 328-647, looked up)
chain: LYGSLATLLICLCAVFGLLLLTCTGCRGVTHYILQTFLSLAVGAVTGDAVLHLTPKVLGLHTHSEEGLSPQPTWRLLAMLAGLYAFFLFENLFNLLLPRDPEDLEDGPCGHSSHSHGGHSHGVSLQLAPSELRQPKPPHEGSRADLVAEESPELLNPEPRRLSPELRLLPYMITLGDAVHNFADGLAVGAAFASSWKTGLATSLAVFCHELPHELGDFAALLHAGLSVRQALLLNLASALTAFAGLYVALAVGVSEESEAWILAVATGLFLYVALCDMLPAMLKVRDPRPWLLFLLHNVGLLGGWTVLLLLSLYEDDITF
notes: human ZIP4 zinc transporter without the N-terminal extracellular domain (residues 1-327 removed); the eight transmembrane domains, residues 328-647; also called eGFP-tagged truncated ZIP4; hZIP4 lacking the ECD; source: HEK293 cells (HEK293T, ATCC CRL-3216), transiently transfected with 50 ng pcDNA3.1 plasmid, measured in living cells; not shown: eGFP (monomeric, A206K), C-terminal, kept
stoichiometry N: 2

B2: full-length human ZIP4 tagged with eGFP (hZIP4/eGFP) (natural protein, UniProt Q6P5W5 23-647, looked up)
chain: SPPAGLLSLLTSGQGALDQEALGGLLNTLADRVHCANGPCGKCLSVEDALGLGEPEGSGLPPGPVLEARYVARLSAAAVLYLSNPEGTCEDARAGLWASHADHLLALLESPKALTPGLSWLLQRMQARAAGQTPKMACVDIPQLLEEAVGAGAPGSAGGVLAALLDHVRSGSCFHALPSPQYFVDFVFQQHSSEVPMTLAELSALMQRLGVGREAHSDHSHRHRGASSRDPVPLISSSNSSSVWDTVCLSARDVMAAYGLSEQAGVTPEAWAQLSPALLQQQLSGACTSQSRPPVQDQLSQSERYLYGSLATLLICLCAVFGLLLLTCTGCRGVTHYILQTFLSLAVGAVTGDAVLHLTPKVLGLHTHSEEGLSPQPTWRLLAMLAGLYAFFLFENLFNLLLPRDPEDLEDGPCGHSSHSHGGHSHGVSLQLAPSELRQPKPPHEGSRADLVAEESPELLNPEPRRLSPELRLLPYMITLGDAVHNFADGLAVGAAFASSWKTGLATSLAVFCHELPHELGDFAALLHAGLSVRQALLLNLASALTAFAGLYVALAVGVSEESEAWILAVATGLFLYVALCDMLPAMLKVRDPRPWLLFLLHNVGLLGGWTVLLLLSLYEDDITF
notes: human ZIP4 zinc transporter, full-length gene, residues 1-647; also called full-length hZIP4/eGFP; full-hZIP4/eGFP; source: HEK293 cells (HEK293T, ATCC CRL-3216), transiently transfected with 50 ng pcDNA3.1 plasmid, measured in living cells; not shown: eGFP (monomeric, A206K), C-terminal, kept
stoichiometry N: 2
